The text below walks through data of paper PMC1525162 (BMC Pharmacology, 2006).

The target of experiment [1] is wild type CLR-RAMP1 heterodimer (HEK293T-RAMP1 membranes) (Homo sapiens, UniProt O60894+Q16602). The experiment can be described thus: Competition radioligand binding, wild type CLR. Particulars: compared to Ki of CGRP. Here is the method: A crude cell membrane preparation was prepared as previously described. Briefly, HEK293T-RAMP1 membranes were prepared by scraping and transferring cells to a 50 mL conical tube using cold HBSS followed with two washings by centrifugation at 1000 × g using cold HBSS. The intact cell pellet was resuspended in 10 mL of 0.25 M sucrose containing a protease inhibitor cocktail consisting of 10μg/mL benzamidine, 10μg/mL leupeptin, and 20μg/mL phenylmethysulfonylfluoride. The cells were disrupted by freezing followed by Dounce homogenization of the thawed suspension using 20 strokes from a loose fitting (B) pestle. This mixture was then centrifuged at 1260 × g for 5 min at 4°C. Buffer A (20 mM HEPES, pH 7.5, 1.4 mM EGTA, 12.5 mM MgCl2, 10μg/mL benzamidine, 10μg/mL leupeptin, and 20μg/mL phenylmethysulfonylfluoride) was added to the supernatant and centrifuged again at 30,000 × g for 15 min at 4°C. The resultant pellet was kept, resuspended in buffer A then centrifuged once more at 30,000 × g for 15 min at 4°C. […] Protein concentrations were measured using the method of Bradford.
The radioligand binding protocol used for this study was performed as previously described. […] Amounts of total and non-specific radiolabel bound to cell membranes were calculated from radioactive counts remaining on the glass fiber filters.

Experiment [2] has as its target wild type CLR-RAMP1 (transiently transfected HEK293T-RAMP1 cells) (Homo sapiens, UniProt O60894+Q16602). Nature of the experiment: cAMP generation, wild type CLR. The format is cell-based.
In experiment [3] the test system is L24A, L34A and L24A,L34A CLR-RAMP1 heterodimers versus wild type. The experiment can be described thus: Competition/saturation binding, leucine mutant CLRs compared with wild type. Particulars: L34A, L24A,L34A vs wild type CLR. Also noted: species or system human. As for the experimental part:
A crude cell membrane preparation was prepared as previously described. Briefly, HEK293T-RAMP1 membranes were prepared by scraping and transferring cells to a 50 mL conical tube using cold HBSS followed with two washings by centrifugation at 1000 × g using cold HBSS. The intact cell pellet was resuspended in 10 mL of 0.25 M sucrose containing a protease inhibitor cocktail consisting of 10μg/mL benzamidine, 10μg/mL leupeptin, and 20μg/mL phenylmethysulfonylfluoride. The cells were disrupted by freezing followed by Dounce homogenization of the thawed suspension using 20 strokes from a loose fitting (B) pestle. This mixture was then centrifuged at 1260 × g for 5 min at 4°C. Buffer A (20 mM HEPES, pH 7.5, 1.4 mM EGTA, 12.5 mM MgCl2, 10μg/mL benzamidine, 10μg/mL leupeptin, and 20μg/mL phenylmethysulfonylfluoride) was added to the supernatant and centrifuged again at 30,000 × g for 15 min at 4°C. The resultant pellet was kept, resuspended in buffer A then centrifuged once more at 30,000 × g for 15 min at 4°C. The final crude membrane pellet was resuspended in buffer A containing 10% glycerol and stored in aliquots at -70°C until used for radioligand binding. Protein concentrations were measured using the method of Bradford.
The radioligand binding protocol used for this study was performed as previously described. […] Binding was stopped by filtering the membranes though Whatman GF/C glass fiber filters, followed by 5 – 5 mL washes with cold buffer B (20 mM HEPES, pH 7.5, 1.4 mM EGTA, 12.5 mM MgCl2) to remove any unbound drug. Amounts of total and non-specific radiolabel bound to cell membranes were calculated from radioactive counts remaining on the glass fiber filters.

In experiment [4] the test system is wild type and L24A, L34A, L24A,L34A CLR-RAMP1 (HEK293T-RAMP1 cells). Nature of the experiment: cAMP generation, wild type and leucine mutant CLRs compared.
A further experiment relates to CGRP receptor. Particulars: cited from earlier work. From the text: Briefly, this 37 amino acid neuropeptide can be divided into two distinct domains based upon its binding and agonistic properties for the receptor. […] Specifically, loss of the disulfide bridge connecting amino acids 2 and 7 negates all biological activity of the endogenous neuropeptide.
Experiment [5] has as its target CLR-RAMP1 heterodimer with the L24A CLR mutant (UniProt Q16602). The experiment can be described thus: radioligand binding; saturation binding: increasing [125I-Tyr]CGRP(8–37) on crude membranes of transiently transfected HEK293T-RAMP1 cells, 37°C, buffer A (20 mM HEPES pH 7.5, […] EGTA, 12.5 mM MgCl2, protease inhibitors) plus 0.1% BSA, 1 μM CGRP for non-specific binding, filtration on GF/C filters.

In experiment [6] the target is CLR-RAMP1 heterodimer with the L24A,L34A CLR double mutant (UniProt Q16602). The experiment is described as above.
Experiment [7] addresses CLR-RAMP1 heterodimer with the L34A CLR mutant (UniProt Q16602). The description is as above.
Experiment [8] concerns the target CLR-RAMP1 heterodimer, wild type calcitonin-like receptor (CLR) with receptor-activity-modifying protein-1 (RAMP1) (UniProt Q16602). The experiment is described as above.
Experiment [9] deals with T1, CLR-RAMP1 heterodimer with the L24A CLR mutant, Q16602.
T1 chain 1: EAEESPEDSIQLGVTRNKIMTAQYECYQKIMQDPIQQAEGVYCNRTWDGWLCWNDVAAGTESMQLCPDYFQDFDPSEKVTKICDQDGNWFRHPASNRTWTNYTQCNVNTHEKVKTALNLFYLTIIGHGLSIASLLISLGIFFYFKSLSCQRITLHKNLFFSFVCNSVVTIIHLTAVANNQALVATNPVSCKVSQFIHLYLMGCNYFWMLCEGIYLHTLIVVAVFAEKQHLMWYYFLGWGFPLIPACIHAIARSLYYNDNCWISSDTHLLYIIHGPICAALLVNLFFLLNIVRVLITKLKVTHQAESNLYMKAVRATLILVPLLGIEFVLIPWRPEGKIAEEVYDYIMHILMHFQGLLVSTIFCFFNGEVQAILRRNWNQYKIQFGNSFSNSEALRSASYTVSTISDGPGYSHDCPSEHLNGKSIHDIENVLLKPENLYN
T1 chain 2: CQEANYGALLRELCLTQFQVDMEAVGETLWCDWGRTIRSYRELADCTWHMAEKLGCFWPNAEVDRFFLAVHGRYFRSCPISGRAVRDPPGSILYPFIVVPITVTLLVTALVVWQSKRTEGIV

In experiment [10] the target is T2, CLR-RAMP1 heterodimer with the L24A,L34A CLR double mutant, Q16602.
T2 chain 1: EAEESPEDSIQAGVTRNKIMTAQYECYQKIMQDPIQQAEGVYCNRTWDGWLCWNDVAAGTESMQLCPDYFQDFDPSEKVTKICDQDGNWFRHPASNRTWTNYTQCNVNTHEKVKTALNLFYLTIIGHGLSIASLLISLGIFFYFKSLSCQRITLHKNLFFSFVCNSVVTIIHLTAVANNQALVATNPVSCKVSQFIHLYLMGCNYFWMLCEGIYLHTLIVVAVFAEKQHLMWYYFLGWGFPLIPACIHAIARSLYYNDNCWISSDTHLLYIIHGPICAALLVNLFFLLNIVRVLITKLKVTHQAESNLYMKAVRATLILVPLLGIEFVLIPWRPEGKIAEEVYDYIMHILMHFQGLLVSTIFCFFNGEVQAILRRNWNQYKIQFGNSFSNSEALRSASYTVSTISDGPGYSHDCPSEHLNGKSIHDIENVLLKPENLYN
T2 chain 2: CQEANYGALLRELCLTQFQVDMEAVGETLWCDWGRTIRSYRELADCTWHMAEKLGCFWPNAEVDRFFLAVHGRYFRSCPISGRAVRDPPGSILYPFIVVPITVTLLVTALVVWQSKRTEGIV

The target in experiment [11] is T3, CLR-RAMP1 heterodimer with the L34A CLR mutant, Q16602.
T3 chain 1: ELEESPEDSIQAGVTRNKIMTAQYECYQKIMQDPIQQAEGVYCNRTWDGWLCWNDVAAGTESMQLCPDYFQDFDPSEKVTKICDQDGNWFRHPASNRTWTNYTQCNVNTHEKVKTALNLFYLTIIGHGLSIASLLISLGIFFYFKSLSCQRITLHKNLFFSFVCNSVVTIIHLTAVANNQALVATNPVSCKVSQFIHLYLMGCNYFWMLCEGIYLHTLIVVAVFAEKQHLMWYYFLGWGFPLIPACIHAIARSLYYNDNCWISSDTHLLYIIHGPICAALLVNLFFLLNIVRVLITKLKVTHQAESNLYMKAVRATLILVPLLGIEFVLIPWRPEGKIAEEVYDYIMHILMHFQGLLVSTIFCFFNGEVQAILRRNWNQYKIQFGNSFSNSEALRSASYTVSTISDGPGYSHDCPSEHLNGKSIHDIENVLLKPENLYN
T3 chain 2: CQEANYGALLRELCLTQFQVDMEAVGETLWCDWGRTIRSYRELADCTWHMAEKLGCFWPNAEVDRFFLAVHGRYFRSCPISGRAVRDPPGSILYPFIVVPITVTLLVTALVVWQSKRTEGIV

The target of experiment [12] is T4, CLR-RAMP1 heterodimer, wild type calcitonin-like receptor (CLR) with receptor-activity-modifying protein-1 (RAMP1), Q16602.
T4 chain 1: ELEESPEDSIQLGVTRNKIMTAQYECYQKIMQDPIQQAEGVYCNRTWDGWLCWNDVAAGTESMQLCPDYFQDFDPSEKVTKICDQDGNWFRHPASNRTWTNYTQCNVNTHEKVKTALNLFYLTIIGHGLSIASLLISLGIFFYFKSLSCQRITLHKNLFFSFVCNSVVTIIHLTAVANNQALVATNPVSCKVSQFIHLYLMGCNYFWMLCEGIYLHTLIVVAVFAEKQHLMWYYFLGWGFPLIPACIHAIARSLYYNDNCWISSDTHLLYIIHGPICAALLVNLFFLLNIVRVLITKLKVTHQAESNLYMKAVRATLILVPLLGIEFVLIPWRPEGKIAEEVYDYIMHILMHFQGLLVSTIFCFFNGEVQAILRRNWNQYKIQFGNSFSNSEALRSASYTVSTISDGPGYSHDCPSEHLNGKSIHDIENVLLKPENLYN
T4 chain 2: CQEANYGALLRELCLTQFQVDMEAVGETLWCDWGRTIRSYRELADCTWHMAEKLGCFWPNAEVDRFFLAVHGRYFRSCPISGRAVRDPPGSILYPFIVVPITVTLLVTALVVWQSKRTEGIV

The target of experiment [13] is T1, CLR-RAMP1 heterodimer with the L24A CLR …. Nature of the experiment: radioligand binding; competition: increasing unlabeled peptide against specific [125I-Tyr]CGRP(8–37) binding on crude membranes of transiently transfected HEK293T-RAMP1 cells, same buffer as the saturation binding; Ki from IC50 by the method of Cheng and Prusoff.
The target of experiment [14] is T2, CLR-RAMP1 heterodimer with the …. The experiment is described as above.
Experiment [15] addresses T3, CLR-RAMP1 heterodimer with the L34A CLR …. The experiment is described as above.
Experiment [16] deals with T4, CLR-RAMP1 heterodimer, wild type …. Described as above.

As a reminder, the Kd is the equilibrium constant for the complex coming apart. Usually Ki stands for a measure of affinity in units of concentration, obtained from inhibition or displacement.

“Also recorded” adds a separate entry of the source. Bridge positions count the residues as written; N and C are the ends. Ends that are not written are not given here. Peptide text beside a SMILES is read from it.

With `CC(C)C[C@H](NC(=O)CNC(=O)[C@H](C)NC(=O)[C@H](CC(C)C)NC(=O)[C@H](CCCNC(=N)N)NC(=O)[C@H](Cc1c[nH]cn1)NC(=O)[C@@H](NC(=O)[C@@H](NC(=O)[C@@H]1CSSC[C@H](NC(=O)[C@H](C)N)C(=O)N[C@@H](CC(=O)O)C(=O)N[C@@H]([C@@H](C)O)C(=O)N[C@@H](C)C(=O)N[C@@H]([C@@H](C)O)C(=O)N1)C(C)C)[C@@H](C)O)C(=O)N[C@@H](CC(C)C)C(=O)N[C@@H](CO)C(=O)N[C@@H](CCCNC(=N)N)C(=O)N[C@@H](CO)C(=O)O` [CGRP(1–19)] (H-ACDTATCVTHRLAGLLSRS-OH; disulfide 2-7 (inferred); N-terminus assumed), the “affinity for wild type CLR compared with CGRP” value in experiment [1] is on record as “significant loss of CGRP(1–19) affinity”. Moreover, in [2] (CGRP(1–36) compared with CGRP, CGRP(1–19) compared with CGRP(1–36) and CGRP), the “maximal cAMP response” value is listed as “appreciably less”. Further, the “cAMP potency compared with CGRP, wild type” value in experiment [2] (compared to CGRP) was “considerably less; also recorded: significantly less”. Further, in [3], the “affinity at leucine mutants compared with wild type” value was “analogous to values calculated for all leucine CLR mutations”. Also, the “cAMP potency at leucine mutants compared with wild type” value in experiment [4] (L24A, L34A, L24A,L34A vs wild type CLR) was “no different; also recorded: no significant potency differences”.

With CGRP(8–37), the “CGRP receptor affinity and activity” value with CGRP receptor (N-terminal truncated peptide) was “effective CGRP receptor antagonist having a high affinity for the receptor but devoid of any biological activity in itself”. Besides, the “antagonism of cAMP response to CGRP(1–36)” value in experiment [4] (1μM CGRP(8–37) preincubated 30 min before 10μM CGRP(1–36), wild type and leucine CLR mutants) is “abolished the activity of 10μM CGRP(1–36); also recorded: blocked to basal levels”.

On to [125I-Tyr]CGRP(8–37) (peptide), for which the Kd in [5] turned out to be 0.009 µM; in experiment [6] it was 0.009 µM; in experiment [7] it was 0.009 µM; in experiment [8], 0.0009 µM.

For “des-F37-CGRP: CGRP with deletion of the C-terminal phenylalanine at position 37 (ACDTATCVTHRLAGLLSRSGGVVKNNFVPTNVGSKA-NH2; disulfide 2-7 (inferred); ends not checked; UniProt P06881 83-119, looked up, variant F37*)”, the “affinity for native receptor compared with endogenous neuropeptide” value with CGRP receptor (not due to disruption of ligand structure) was “affinity loss”.

In the case of ACDTATCVTHRLAGLLSRS (modifications not checked) [CGRP(1–19)], the EC50 of cAMP generation in transiently transfected HEK293T-RAMP1 cells in experiment [9] was 2.4 µM; in [10], 1.6 µM; in experiment [11], 2.2 µM; in [12] it was 2.1 µM. The Ki in experiment [13], in experiment [14], in experiment [15] and in [16] was > 10 µM each time.
